Here are results for two molecules from patent US20250230246A1 (SAMYANG BIOPHARM USA, published 2025).

Assay [1] concerns the target T1, Human CD64 (FcγRI) (human, UniProt P12314 16-288, limits assumed). Kind of assay: kinetic binding assay (ka, kd, Rmax in RU; method not named).
In assay [2] the target is T2, Human CD32a (FcγRIIA) (human, UniProt P12318 34-217, limits assumed).
T2 sequence (looked up): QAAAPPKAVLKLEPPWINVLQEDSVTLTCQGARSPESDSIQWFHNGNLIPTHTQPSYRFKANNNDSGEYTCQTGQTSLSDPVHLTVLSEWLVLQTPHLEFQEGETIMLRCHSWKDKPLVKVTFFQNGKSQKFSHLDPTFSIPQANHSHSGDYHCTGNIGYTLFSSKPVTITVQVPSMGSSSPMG
The assay is described as above.

A further assay concerns the target MICA*008 (human). Described as above.
The target in a further assay is MICB*005 (human). The description is as above.
Assay [3] deals with T1, Human CD64 (FcγRI). Kind of assay: kinetic binding assay (Table 2); ND = not detectable.
Assay [4] addresses T2, Human CD32a (FcγRIIA). The assay is described as above.

T1 sequence (P12314 16-288 limits assumed): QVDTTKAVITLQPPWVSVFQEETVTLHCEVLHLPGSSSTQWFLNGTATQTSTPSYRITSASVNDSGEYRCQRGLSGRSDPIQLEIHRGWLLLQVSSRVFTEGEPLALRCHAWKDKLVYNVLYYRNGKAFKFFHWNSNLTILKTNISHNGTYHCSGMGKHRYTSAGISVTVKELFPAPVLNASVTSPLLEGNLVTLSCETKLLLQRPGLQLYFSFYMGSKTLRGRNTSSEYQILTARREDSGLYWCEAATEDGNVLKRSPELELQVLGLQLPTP

B1: SYB-010 (antibody, human IgG1, kappa)
heavy: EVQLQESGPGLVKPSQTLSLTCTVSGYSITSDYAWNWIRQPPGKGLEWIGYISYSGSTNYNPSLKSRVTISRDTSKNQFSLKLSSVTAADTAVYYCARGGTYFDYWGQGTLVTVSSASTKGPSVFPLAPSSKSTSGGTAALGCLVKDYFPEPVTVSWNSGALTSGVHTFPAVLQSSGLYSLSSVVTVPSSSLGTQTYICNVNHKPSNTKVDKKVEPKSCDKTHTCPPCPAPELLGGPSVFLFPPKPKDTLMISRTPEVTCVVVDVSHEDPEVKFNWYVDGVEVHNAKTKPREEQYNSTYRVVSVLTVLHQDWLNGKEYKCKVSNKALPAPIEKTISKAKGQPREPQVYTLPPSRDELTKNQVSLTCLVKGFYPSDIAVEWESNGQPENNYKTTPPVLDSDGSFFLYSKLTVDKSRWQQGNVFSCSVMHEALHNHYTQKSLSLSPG
light: DVVMTQSPSTLSASVGDRVTITCRASAHINNWLAWYQQKPGKAPKLLISDATSLESGVPSRFSGSGSGKEYTLTISSLQPDDFATYYCQHYWSTPWTFGQGTKVEIKRTVAAPSVFIFPPSDEQLKSGTASVVCLLNNFYPREAKVQWKVDNALQSGNSQESVTEQDSKDSTYSLSSTLTLSKADYEKHKVYACEVTHQGLSSPVTKSFNRGEC
notes: also called SYB-010 Fc wildtype
By Kd is commonly meant the constant that tells how readily two partners part at equilibrium. The low end stands for a tighter complex, the high end for a looser complex. In general, koff refers to the first-order rate constant of dissociation. The kon is the second-order rate constant of association. As for B1, the Kd with Human CD64 (FcγRI) [1] came to 1.61 nM; with Human CD32a (FcγRIIA) [2], 1540 nM; with MICA*008 it was 0.98 nM; with MICB*005, 21 nM. Further, the koff with Human CD64 (FcγRI) [1] worked out at 0.00133 s⁻¹; with Human CD32a (FcγRIIA) [2], 0.772 s⁻¹; with MICA*008, 0.000627 s⁻¹; with MICB*005, 0.0394 s⁻¹. The kon was 825000 M⁻¹ s⁻¹ with Human CD64 (FcγRI) [1], 500000 M⁻¹ s⁻¹ in the assay with Human CD32a (FcγRIIA) [2], 639000 M⁻¹ s⁻¹ with MICA*008 and 1.88e+06 M⁻¹ s⁻¹ with MICB*005.

B2: SYB-011 (antibody, human IgG1, kappa, L234A L235A)
heavy: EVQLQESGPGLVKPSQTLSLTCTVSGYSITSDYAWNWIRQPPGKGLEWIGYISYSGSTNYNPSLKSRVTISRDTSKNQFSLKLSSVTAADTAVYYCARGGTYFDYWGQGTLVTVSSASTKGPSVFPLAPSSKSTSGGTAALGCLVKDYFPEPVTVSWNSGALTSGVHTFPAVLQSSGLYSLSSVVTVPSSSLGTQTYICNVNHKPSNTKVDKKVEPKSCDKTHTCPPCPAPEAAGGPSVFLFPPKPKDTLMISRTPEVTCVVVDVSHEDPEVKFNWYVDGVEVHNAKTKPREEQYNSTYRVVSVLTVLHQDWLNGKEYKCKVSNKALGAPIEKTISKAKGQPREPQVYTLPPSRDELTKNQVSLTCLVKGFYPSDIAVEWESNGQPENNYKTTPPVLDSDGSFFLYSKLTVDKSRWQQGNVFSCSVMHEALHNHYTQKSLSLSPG
light: DVVMTQSPSTLSASVGDRVTITCRASAHINNWLAWYQQKPGKAPKLLISDATSLESGVPSRFSGSGSGKEYTLTISSLQPDDFATYYCQHYWSTPWTFGQGTKVEIKRTVAAPSVFIFPPSDEQLKSGTASVVCLLNNFYPREAKVQWKVDNALQSGNSQESVTEQDSKDSTYSLSSTLTLSKADYEKHKVYACEVTHQGLSSPVTKSFNRGEC
notes: Positions are EU index numbers; also called SYB-011 Fc mutant; effectorless anti-MIC antibody
Turning to B2, the binding result in the assay with Human CD64 (FcγRI) [3] is on record as “no binding”. For the same molecule, in the assay with Human CD32a (FcγRIIA) [4], the binding result is “no binding”. In the assay with MICA*008, this molecule yielded a Kd of 1.04 nM, a koff of 0.000617 s⁻¹ and a kon of 596000 M⁻¹ s⁻¹. Further, in the assay with MICB*005, the Kd was 19.8 nM, the koff came out at 0.0939 s⁻¹ and the kon came to 4.74e+06 M⁻¹ s⁻¹.
